Experimental findings from US20240206509A1 (CLARA FOODS, published 2024) are described below.

This assay concerns the target bovine trypsin (bovine, UniProt P00760 24-246). As to the kind of experiment: cell-based or functional assay.

Sequence of bovine trypsin (P00760 24-246): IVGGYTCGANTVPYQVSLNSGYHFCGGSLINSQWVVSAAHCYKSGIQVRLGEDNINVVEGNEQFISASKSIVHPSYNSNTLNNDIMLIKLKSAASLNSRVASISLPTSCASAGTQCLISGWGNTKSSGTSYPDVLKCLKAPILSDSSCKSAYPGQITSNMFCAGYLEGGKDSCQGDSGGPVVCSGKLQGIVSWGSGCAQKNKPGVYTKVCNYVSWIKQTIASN

B1: native chicken ovomucoid (nOVD) (other)
chain: AEVDCSRFPNATDKEGKDVLVCNKDLRPICGTDGVTYTNDCLLCAYSIEFGTNISKEHDGECKETVPMNCSSYANTTSEDGKVMVLCNRAFNPVCGTDGVTYDNECLLCAHKVEQGASVDKRHDGGCRKELAAVSVDCSEYPKPDCTAEDRPLCGSDNKTYGNKCNFCNAVVESNGTLTLSHFGKC
modifications: complex branched N-linked glycosylation (that includes mannose), as in chicken egg white
Molecule B1 had a Trypsin inhibition activity of 13700 TIU/g.
